Source: patent US20220073619A1 (IMCHECK THERAPEUTICS, published 2022)

What was measured:
[1] = biological target: Human BTN3A, membrane displayed on cells (human PBMCs, Daudi cells, SKOV-3 cells) (human), O00481; experiment: cell-based or functional assay
[2] = biological target: T1, Human BTN3A1 His-tagged antigen (Sino Biological Cat. No. 15973-H08H) (human, UniProt O00481 30-254); experiment: SPR Biacore T200, single cycle kinetics, BTN3A1-His captured on anti-His CM5 chip, Fab as analyte, 1:1 model, 25 C
T1 construct: Bought recombinant protein; also called recombinant human BTN3A1-His; not shown: His tag
Description: All single cycle kinetic experiments were run at 25° C. with HBS-P+ running buffer (pH 7.4) containing 0.1% BSA (GE Healthcare, Little Chalfont, UK).
Human BTN3A1 His-tagged antigen (Sino Biological, Beijing, China) was diluted in running buffer to a final concentration of 0.4 μg/mL. At the start of each cycle, BTN3A1-His was captured onto Fc2 of CM5 sensor chip pre-coupled using a His capture kit (GE Healthcare, Little Chalfont, UK) with standard amine chemistry at a flow rate of 10 μL/min. An immobilization level (RL) of ˜17 RU or 8 RU, the different theoretical values to obtain a RMax of ˜25 RU was used for the analytes Fab and F(ab′)₂ respectively. The surface was then allowed to stabilize. Single cycle kinetics data was obtained with the purified samples (Fab and F(ab′)₂)) at a flow rate of 40 μL/min to minimize any potential mass transfer effects. The signal from the reference channel Fc1 (no antigen capture) was subtracted from that of Fc2 to correct for differences in non-specific binding to the reference surface. […] The signal for BTN3A1-His blank runs (no analyte) were subtracted to correct for differences in surface stability. The association phase for the five injections of increasing concentrations was monitored for 240 seconds each time and a single dissociation phase was measured for 2000 seconds following the last injection of analyte. Regeneration of the chip surface was conducted using two injections of 10 mM glycine-HCL pH 1.5 followed by a stabilization period of 240 seconds.
Raw sensorgrams were fitted with a 1:1 model for Fab samples and with a bivalent analyte model for F(ab′)₂ samples in agreement with the different valences of the analytes. Kinetic constants obtained are detailed in Table 1 and Table 2.

[3] = biological target: T1, Human BTN3A1 His-tagged antigen (Sino …); experiment: BLI OctetRed96, antibody loaded on FAB2G (anti-human CH1) sensors, human BTN3A1 as analyte 1.87-60 nM, 1:1 model, 30 C
Description: (§1) All runs (including loading, equilibration, association/dipping of sensors into analyte, dissociation and regeneration) were performed in black 96-well plates (Greiner) at 30° C. with shaking 1000 rpm using an OctetRed96 (ForteBio). […] The association of antibody or fragments with various concentrations of human BTN3A1 (60, 30, 15, 7.5, 3.75 and 1.87 nM) was monitored for 300 s, and the dissociation was followed for typically 500 s in kinetic buffer. Fitting of the data and constant measurements were performed with the Octet Red system software (version 7.1) using the 1:1 model. A control with an irrelevant antibody was used in order to assess the absence of non-specific binding of the target protein.

[4] = biological target: T1, Human BTN3A1 His-tagged antigen (Sino …); experiment: SPR Biacore T200, single cycle kinetics, BTN3A1-His captured on anti-His CM5 chip, IgG as analyte, bivalent analyte model (ka 1), 25 C
Description: (§2) Human BTN3A1 His-tagged antigen (Sino Biological, Beijing, China) was diluted in running buffer to a final concentration of 0.4 μg/mL. At the start of each cycle, human BTN3A1-His was captured onto Fc2 of CM5 sensor chip pre-coupled using a His capture kit (GE Healthcare, Little Chalfont, UK) with standard amine chemistry at a flow rate of 10 μL/min. An immobilization level (RL) of ˜34 RU, 16 RU or 11 RU, the different theoretical values to obtain a RMax of ˜50 RU was used for the analytes Fab, F(ab′)₂ and IgG respectively. The surface was then allowed to stabilize. Single cycle kinetic data was obtained with the purified samples (Fab, F(ab′)₂ and IgG) at a flow rate of 40 μL/min to minimize any potential mass transfer effects. The signal from the reference channel Fc1 (no antigen capture) was subtracted from that of Fc2 to correct for differences in non-specific binding to the reference surface. The signal for human BTN3A1-His blank runs (no analyte) were subtracted to correct for differences in surface stability. The association phase for the five injections of increasing concentrations was monitored for 240 seconds each time and a single dissociation phase was measured for 1400 seconds following the last injection of analyte. Regeneration of the chip surface was conducted using two injections of 10 mM glycine-HCL pH 1.5 followed by a stabilization period of 240 seconds.

[5] = biological target: T1, Human BTN3A1 His-tagged antigen (Sino …); experiment: SPR Biacore T200, single cycle kinetics, BTN3A1-His captured on anti-His CM5 chip, IgG as analyte, bivalent analyte model (ka 2), 25 C
Description: as §2

[6] = biological target: T1, Human BTN3A1 His-tagged antigen (Sino …); experiment: SPR Biacore T200, single cycle kinetics, BTN3A1-His captured on anti-His CM5 chip, IgG as analyte, bivalent analyte model (kd 1), 25 C
Description: as §2

[7] = biological target: T1, Human BTN3A1 His-tagged antigen (Sino …); experiment: SPR Biacore T200, single cycle kinetics, BTN3A1-His captured on anti-His CM5 chip, IgG as analyte, bivalent analyte model (kd 2), 25 C
Description: as §2

[8] = biological target: T1, Human BTN3A1 His-tagged antigen (Sino …); experiment: competition ELISA on coated BTN3A1-His, competitor murine 103.2
Description: Chimeric (VH0/Vκ0) and irrelevant human IgG4 (S241P, L248E) were tested on each plate for comparison.
BTN3A1 was diluted in 1×PBS to 0.5 μg/ml and 100 μL/well was coated overnight at 4° C. on a 96-well ELISA plate. The following day, the plate was washed 3× with 1×PBS/0.05% Tween (PBS-T) and blocked with 200 μL of 2% milk/PBS for 1 hour at room temperature. […] After washing the Nunc ELISA plate 3× with PBS-T, 100 μL of murine/test antibody mix was added to the ELISA plate. After one hour incubation at room temperature, the plate was washed 3 times with PBS-T and 100 μL of anti-mouse Fc HRP-labelled secondary antibody (Sigma, Dorset, UK) diluted 1:1000 in blocking buffer was applied for 1 hour at room temperature to detect bound murine antibody. The plate was washed 3 times with PBS-T following which 100 μL of TMB substrate was added and incubated for five minutes at room temperature. The reaction was stopped with 100 μl of 3.0 M hydrochloric acid and absorbance was read immediately using a Dynex plate reader at 450 nm.

[9] = biological target: T1, Human BTN3A1 His-tagged antigen (Sino …); experiment: SPR Biacore T200, multi-cycle kinetics, antibody captured on Protein A, BTN3A1-His as analyte, 1:1 model
Description: Purified antibodies were diluted to a concentration of 2 μg/mL in 2% BSA/PBS. At the start of each cycle, each antibody was captured on the Protein A at a density (RL) of 146.5 RU (theoretical value to obtain an RMax of ˜50 RU). Following capture, the surface was allowed to stabilize before injection of the BTN3A1 antigen (Sino Biological cat. no. 15973-H08H). BTN3A1 was titrated in 0.1% BSA/HBS-P+(running buffer) in a two-fold dilution range from 12 to 0.375 nM. The association phase was monitored for 360 seconds and the dissociation phase for 45 minutes (2700 seconds). Kinetic data was obtained using a flow rate of 40 μL/min to minimize any potential mass transfer effects. Regeneration of the Protein A surface was conducted using two injections of 10 mM glycine-HCL pH 1.5 at the end of each cycle. Two blanks (no BTN3A1) and a repeat of a single concentration of the analyte were performed for each tested antibody to check the stability of the surface and analyte over the kinetic cycles. The chimeric antibody was run twice. The signal from the reference channel Fc1 was subtracted from that of Fc2, Fc3 and Fc4 to correct for differences in non-specific binding to a reference surface. Additionally, blank runs were subtracted for each Fc to correct any antigen-independent signal variation, such as drift. […]

[10] = biological target: T1, Human BTN3A1 His-tagged antigen (Sino …); experiment: BLI OctetRed96, Fab loaded on FAB2G (anti-human CH1) sensors, human BTN3A1 as analyte 1.87-60 nM, 1:1 model, 30 C
Description: as §1

[11] = biological target: T1, Human BTN3A1 His-tagged antigen (Sino …); experiment: SPR Biacore T200, single cycle kinetics, BTN3A1-His captured on anti-His CM5 chip, Fab as analyte, 1:1 model, 25 C; remark: listed apart in the source
Description: as §2

T1 sequence (O00481 30-254 limits assumed): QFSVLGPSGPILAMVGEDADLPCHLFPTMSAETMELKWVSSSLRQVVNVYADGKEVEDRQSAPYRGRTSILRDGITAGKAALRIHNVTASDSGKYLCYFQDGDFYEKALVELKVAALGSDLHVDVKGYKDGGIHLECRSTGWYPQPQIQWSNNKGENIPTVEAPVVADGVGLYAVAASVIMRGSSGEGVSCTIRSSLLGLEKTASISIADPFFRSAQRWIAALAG

B1: Chimeric 103.2 antibody (VH0/Vκ0), full-length IgG (antibody, V domains shown)
VH: QVQMQQSGAEVVRPGTSVKVSCKASGYAFTSYLIHWIKQRPGQGLEWIGVINPRSGDSHYNEKFKDRTTLTADQSSSTAYMQLSSLTSDDSAVYFCARSDYGAYWGQGTLVTVSS
VL: DIVLTQSPVTLSVTPGDSVSLSCRASQSISNNLHWYRQKSHESPRLLIKYASQSIFGIPSRFSGSGSGTEFTLSINSVETEDFGIYFCQQSNSWPHTFGTGTKLELK
Binder B1 has a % CD107+ of Vγ9Vδ2 T cells, co-culture with Daudi cells, antibody at 10 µg/mL [1] of 6.96%.

B2: Chimeric 103.2 Fab fragment (Fab, V domains shown)
VH: QVQMQQSGAEVVRPGTSVKVSCKASGYAFTSYLIHWIKQRPGQGLEWIGVINPRSGDSHYNEKFKDRTTLTADQSSSTAYMQLSSLTSDDSAVYFCARSDYGAYWGQGTLVTVSS
VL: DIVLTQSPVTLSVTPGDSVSLSCRASQSISNNLHWYRQKSHESPRLLIKYASQSIFGIPSRFSGSGSGTEFTLSINSVETEDFGIYFCQQSNSWPHTFGTGTKLELK
Binder B2 has a % CD107+ of Vγ9Vδ2 T cells, co-culture with Daudi cells, fragment at 10 µg/mL [1] of 66.7%, a Kd [2] of 1.42 nM and a koff [2] of 0.000782 s⁻¹. The kon [2] was 551000 M⁻¹ s⁻¹.

B3: Humanized 103.2 (hu103.2) full-length antibody: 103.2 VH4/Vκ4 IgG1 L247F L248E P350S dK (antibody, V domains shown)
VH: QVQMQQSGAEVKKPGASVKVSCKASGYAFTSYLIHWIKQRPGQGLEWIGVINPRSGDSHYNEKFKDRVTMTADQSISTAYMELSRLRSDDTAVYYCARSDYGAYWGQGTLVTVSS
VL: EIVLTQSPATLSVSPGERATLSCRASQSISNNLHWYQQKPGQAPRLLIKYASQSAFGIPARFSGSGSGTEFTLTISSLQSEDFAVYFCQQSNSWPHTFGQGTKLEIK
notes: also called hu103.2 (IgG)
Binder B3 has a % CD25+ of Vγ9Vδ2 T cells within PBMCs, 67 nM, 5 days [1] of 7.9%, a % CTV dilution of Vγ9Vδ2 T cells within PBMCs, 67 nM, 5 days [1] of 9.5% and a Kd [3] of 1.44 nM. It also gave a koff [3] of 0.00028 s⁻¹, a kon [3] of 194000 M⁻¹ s⁻¹ and a kon [4] of 430000 M⁻¹ s⁻¹. The “ka 2” value [5] was 9.28 M⁻¹ s⁻¹, the koff [6] was 0.000352 s⁻¹ and the “kd 2” value [7] was 17.6 s⁻¹.

B4: 103.2 humanized variant VH4/Vκ4 (IgG4 format of the humanization screen) (antibody, V domains shown)
VH: QVQMQQSGAEVKKPGASVKVSCKASGYAFTSYLIHWIKQRPGQGLEWIGVINPRSGDSHYNEKFKDRVTMTADQSISTAYMELSRLRSDDTAVYYCARSDYGAYWGQGTLVTVSS
VL: EIVLTQSPATLSVSPGERATLSCRASQSISNNLHWYQQKPGQAPRLLIKYASQSAFGIPARFSGSGSGTEFTLTISSLQSEDFAVYFCQQSNSWPHTFGQGTKLEIK
notes: It has the same variable regions as hu103.2, which is the later IgG1 Fc-silent construct
B4 was tested, and the “IC50 relative to chimeric” value [8] was ≤ 2 fold of chimeric (VH0/Vκ0) and the “affinity (KD) relative to chimeric” value [9] was ≤ 2 fold of 103.2 chimeric (VH0/Vκ0).

B5: Humanized 103.2 (hu103.2) Fab fragment (Fab, V domains shown)
VH: QVQMQQSGAEVKKPGASVKVSCKASGYAFTSYLIHWIKQRPGQGLEWIGVINPRSGDSHYNEKFKDRVTMTADQSISTAYMELSRLRSDDTAVYYCARSDYGAYWGQGTLVTVSS
VL: EIVLTQSPATLSVSPGERATLSCRASQSISNNLHWYQQKPGQAPRLLIKYASQSAFGIPARFSGSGSGTEFTLTISSLQSEDFAVYFCQQSNSWPHTFGQGTKLEIK
B5 was tested, and the % CD25+ of Vγ9Vδ2 T cells within PBMCs, 67 nM, 5 days [1] was 32.7%, the % CTV dilution of Vγ9Vδ2 T cells within PBMCs, 67 nM, 5 days [1] was 45.3% and the EC50 (nM) in Vγ9Vδ2 T cell degranulation assay (CD107) against Daudi [1] was 0.91 nM. It also gave an EC50 (nM) in Vγ9Vδ2 T cell degranulation assay (CD107) against SKOV-3 [1] of 0.08 nM, a Kd [10] of 2.43 nM and a koff [10] of 0.000419 s⁻¹. It also gave a kon [10] of 172000 M⁻¹ s⁻¹, a Kd [11] of 1.26 nM and a koff [11] of 0.00138 s⁻¹. It also gave a kon [11] of 1.1e+06 M⁻¹ s⁻¹.
